From the RNAGym collection of RNA variant scans (doi:10.7554/elife.80360) come the findings set out here.

B1: Twister Ribozyme (parent)
chain: AACACUGCCAAUGCCGGUCCCAAGCCCGGAUAAAAGUGGAGGGGGCGG

Variants of B1 are the subject of this data set. Nature of the data set: self-cleavage, relative activity (ratio to wild type); higher = more cleavage; co-transcriptional.
As to AACCCUGCCAAUGCCGGUCCCAAGACCGGAUAAAAGUGGAGGGGGCGG [A4C C25A], the self-cleavage was 0.0458.

As to AACACUGCCAAUGCCGGUCCCAAGCCGGGAGAAAAGUGGAGGGGGCGG [C27G U31G], the self-cleavage stood at 0.0669.

For the variant AACACUGCCAAUGCCGGUCCCAAGCCCGCACAAAAGUGGAGGGGGCGG [G29C U31C], the self-cleavage is 0.999.

For AACACUGCCAAUGCCGGACCCACGCCCGGAUAAAAGUGGAGGGGGCGG [U18A A23C], the self-cleavage came out at 0.372.

For the variant AACACUGCCAUUGCCGGUCCCAAGCCCGGAUAAAAGUGGAGGGGGCUG [A11U G47U], the self-cleavage came out at 0.98.

Regarding AACACUACCAAUGCCGGUCCCAAGCCCGGAUACAAGUGGAGGGGGCGG [G7A A33C], the self-cleavage came out at 0.211.

Consider AACACUGCCAAUGCCGGUCCCAAGCCCGGAUAAACAUGGAGGGGGCGG [A35C G36A], for which the self-cleavage turned out to be 0.491.

Turning to AACACUGCUAAUGCCGGUCCCAAGCCCGGAUAAAAGUGGAGGGGGGGG [C9U C46G], the self-cleavage came out at 0.651.

Take AACACUGCCAAUGCCGGUCCCAGGCUCGGAUAAAAGUGGAGGGGGCGG [A23G C26U]: the self-cleavage was 0.101.

On to AACACUGCCUAUGCCGGUCCCAAGCCCGGAUAAAAGUGGAGGGGUCGG [A10U G45U], for which the self-cleavage is 0.871.

Regarding AACACUGCCAAUGCCAGUCCCAAUCCCGGAUAAAAGUGGAGGGGGCGG [G16A G24U], the self-cleavage was 0.113.

On to ACCACUGCAAAUGCCGGUCCCAAGCCCGGAUAAAAGUGGAGGGGGCGG [A2C C9A], for which the self-cleavage is 0.0489.

Regarding AACACUGCCAAUGCCGGUCCUAAGCCCGGAUAAAAUUGGAGGGGGCGG [C21U G36U], the self-cleavage was determined as 0.0467.

Regarding AAAACUGCCAAUGCCGGUCCCAAGCCCGGAUAAAAGUGGAGAGGGCGG [C3A G42A], the self-cleavage came to 0.0462.

As for AACACUGCCAAUGCCGGUCGCAAGCCCGGAUAAAAGUGGAGGGGGCAG [C20G G47A], the self-cleavage was found to be 0.111.

With AACACUGCUAAUGCCGGUCCCAAGCCCGGAUAAGAGUGGAGGGGGCGG [C9U A34G], the self-cleavage is 0.3.

As for AACACUGCCAAUGCCGGUCCCAAGACCGGAGAAAAGUGGAGGGGGCGG [C25A U31G], the self-cleavage turned out to be 0.127.

Take AACACUGCCAAUGCCGGUCCCAAGCCCGGAUUAAAGUGGAGGUGGCGG [A32U G43U]: the self-cleavage is 0.384.

On to AACACUGCCAAUGCCGAUCCCAAGACCGGAUAAAAGUGGAGGGGGCGG [G17A C25A], for which the self-cleavage was 0.164.

For the variant AACACUGCCAAUGCCGGUCCCAAGCCCGAAUAAAAGUGCAGGGGGCGG [G29A G39C], the self-cleavage is 0.166.

Take AGCACUGCCAAUGCCGGUCCCAAGCCCGCAUAAAAGUGGAGGGGGCGG [A2G G29C]: the self-cleavage came out at 0.188.

For the variant AACAUUGCCAAUGCCGGUCCCAAGCCCGGAUAAACGUGGAGGGGGCGG [C5U A35C], the self-cleavage stood at 0.82.

With AGCACUGCCAAUGCCGGUCUCAAGCCCGGAUAAAAGUGGAGGGGGCGG [A2G C20U], the self-cleavage came to 0.115.

On to UACACUGCCAAUGCCGGUCCCAAGCCCGGAUCAAAGUGGAGGGGGCGG [A1U A32C], for which the self-cleavage was 0.057.

Take AACACUGCCAAUGCCGCUCCCGAGCCCGGAUAAAAGUGGAGGGGGCGG [G17C A22G]: the self-cleavage is 0.0562.

For AACACUGCCAAUGCCGGGCCCAAGCUCGGAUAAAAGUGGAGGGGGCGG [U18G C26U], the self-cleavage is 0.0716.

For the variant AACACUGCCAAUGCCGGUCCCCAGCCCGGAUAAAAGUGGAGGGGGCGG [A22C], the self-cleavage was 1.02.

Regarding AACACUGCCAAUGCCGGUCCCAAACCCGGAUACAAGUGGAGGGGGCGG [G24A A33C], the self-cleavage is 0.0756.

Consider AACACUGACAAUGCCGGUCCCAAGCCCGGAUAAAAGUGCAGGGGGCGG [C8A G39C], for which the self-cleavage was 0.148.

For the variant AACACUGCCAAUGCCGGUCCCAACCCCGGAUAAAAGUGGAGGGGGGGG [G24C C46G], the self-cleavage worked out at 0.105.

For the variant AACACUGCCAAUGCCGGUCCCAAGCCCGGAUAAAAGUGGAGGGGGCGU [G48U], the self-cleavage was 1.06.

For the variant AACACUGGCAAUGCCGGUCCCAAGCCCGGAUAAAACUGGAGGGGGCGG [C8G G36C], the self-cleavage came to 0.119.

Regarding AACACUGCCAAGGCCGGUCACAAGCCCGGAUAAAAGUGGAGGGGGCGG [U12G C20A], the self-cleavage was 0.314.

For the variant AACACUGCCAAUGCCGGUCCCAAGCCCGGAUAAAAUUGGGGGGGGCGG [G36U A40G], the self-cleavage turned out to be 0.125.

As for ACCAAUGCCAAUGCCGGUCCCAAGCCCGGAUAAAAGUGGAGGGGGCGG [A2C C5A], the self-cleavage came to 0.0506.

For CACACUGCCAAUGCCGGUCCCAAGCCCGGAUAAAAGUGGAGGGGACGG [A1C G45A], the self-cleavage amounted to 0.184.

On to AACACUUCCAAUGCCGGUCCCAAGCCCGGAGAAAAGUGGAGGGGGCGG [G7U U31G], for which the self-cleavage is 0.131.

For the variant AACACUGCCAAUGCCGGUCCUAAGCCCGGAUAAAAGUGGAGGUGGCGG [C21U G43U], the self-cleavage is 0.106.

As for AACACUGCCAAUGCCGGUCCCAAGCCCGGAUCAAAGUGGAGGGGGCGG [A32C], the self-cleavage is 0.967.

In the case of AACACUGCCAAUGCCGGUCGCAAGCCCGGAUAAAAGUGGAGGGGUCGG [C20G G45U], the self-cleavage is 0.0778.

As to AACACUGCCAAUGACGGUCCCAAGCCCGGAUAAAAGCGGAGGGGGCGG [C14A U37C], the self-cleavage is 0.619.

For the variant AACACUGCCAAAGCCGGUCCCAAGCCGGGAUAAAAGUGGAGGGGGCGG [U12A C27G], the self-cleavage is 0.138.

With AACACUGCCAAUGCCGGUCCCAAGCCCGGAUCAAGGUGGAGGGGGCGG [A32C A35G], the self-cleavage came to 0.8.

As for AACACUGCCAAUGCCGUUCCCAAGCCCGGAUAAAAGUGGAGGGCGCGG [G17U G44C], the self-cleavage was 0.293.

Turning to AACACUGCCAAUGACGGUCCCAUGCCCGGAUAAAAGUGGAGGGGGCGG [C14A A23U], the self-cleavage turned out to be 0.508.

Turning to AACACUGCCAAUGCCGGUCCCAAGCCCCGAUAAAAGUGGAGGGCGCGG [G28C G44C], the self-cleavage turned out to be 0.666.

In the case of AACACUGCCAAUGCCGGUACCAAGCACGGAUAAAAGUGGAGGGGGCGG [C19A C26A], the self-cleavage was found to be 0.0793.

On to AGCACUGCCAAUGCCGGUCCCAAGCCCGGAUGAAAGUGGAGGGGGCGG [A2G A32G], for which the self-cleavage amounted to 0.317.

In the case of AACAAUGCCAAUGCAGGUCCCAAGCCCGGAUAAAAGUGGAGGGGGCGG [C5A C15A], the self-cleavage turned out to be 0.214.

For the variant AACACUGCCAAUGCCGGUCCCAAGCUCGGAUAAAAGUGGAGGUGGCGG [C26U G43U], the self-cleavage was determined as 0.111.

AACACUGACAAUGCCGGUCCCUAGCCCGGAUAAAAGUGGAGGGGGCGG [C8A A22U]: the self-cleavage was 0.127.

As to AACACUGCCAAUGCCGCUCCCAAGCCCGGAUAAAAAUGGAGGGGGCGG [G17C G36A], the self-cleavage came out at 0.0801.

AAGACUGCCAAUGCCGGUCCCAAGCCCGGAUAAAAGUGGACGGGGCGG [C3G G41C]: the self-cleavage is 0.0954.

On to AACACUACCAAUGCCGGUCCCAAGCCCGGAUAAAAGUGAAGGGGGCGG [G7A G39A], for which the self-cleavage turned out to be 0.171.

Turning to AAGACUGCCAAUGCCGGUCCCAAGCCGGGAUAAAAGUGGAGGGGGCGG [C3G C27G], the self-cleavage stood at 0.0859.

For the variant AACACAGCCAAUGCUGGUCCCAAGCCCGGAUAAAAGUGGAGGGGGCGG [U6A C15U], the self-cleavage was found to be 0.649.

Consider AACACUGCCAAUGCCGGUCCCAAGCCCAGAUAAAAGAGGAGGGGGCGG [G28A U37A], for which the self-cleavage turned out to be 0.465.

AACACUGCCAAUUCCGGUCCCCAGCCCGGAUAAAAGUGGAGGGGGCGG [G13U A22C]: the self-cleavage amounted to 0.708.

Regarding AACACUGCCACUGCCGGUCCCAAGACCGGAUAAAAGUGGAGGGGGCGG [A11C C25A], the self-cleavage was 0.0918.

Take AACACUGCCAAUGCCGGUCCCAAGCCCGGAUAAAAGUGGAAGCGGCGG [G41A G43C]: the self-cleavage is 0.14.

Take AACAAUGCCAAUGCCGGUCCCAAGCCCGGAUACAAGUGGAGGGGGCGG [C5A A33C]: the self-cleavage was determined as 0.439.

In the case of AACACUGCCAAUGCCGGUCCCAAGCCCCGAUAAACGUGGAGGGGGCGG [G28C A35C], the self-cleavage came to 0.912.

For the variant AACACUGCCAAUGCCGCUCCCAAGCCCAGAUAAAAGUGGAGGGGGCGG [G17C G28A], the self-cleavage worked out at 0.069.
